Source: US9371519B2, “Complex type sugar chain hydrolase” (National Institute of Advanced Industrial Science and …, priority 2011, dated 2016)

B1: Endo-Om: endo-β-N-acetylglucosaminidase from methylotrophic yeast Ogataea minuta IFO10746, amino acid sequence SEQ ID NO. 1, 772 amino acids (protein, listed as Ogataea minuta)
chain: MAQSQLLGGAVRPVFFDKLEELRRWHTQSANLSRESELDSLNVATEPFSSYERAQTGSGSRSSEPVPGDKEDPPIKLMVCHDFKGGYQDYEDAQPLGYFPHPTGSRYFLQYPQLIDQFVYFSHHRVTVPPVNWINFCHRNGIKCFGTVIFEGNASKDFEELDRLVSRDEKGDFVFVDALIKLAAHYGFDGYLLNIETTFSNTKIAADLEPFAEQLKSGLHCLDSKNELIWYDSYVFPANKVSYTNGVTESNYNFFSLSDAFFSNYWWNIKNLQENIKNVGVLGVQKKIYVGYDVWGRGTLVGKGGFDSSLACKMIAKFKSNVALFAPAWTYESLGPKDFNQNDARFWIGLFENESSISSTVPPHSSAVYKINESSFIFYTNFSSGEGNRFFSKGSEVYRKNWVNGSLQFDLPIDLHRKDKNGLQWALDKSDAFHGGACLEIKYSEIKDENGYQIFNNQMVSDFTLFNFTKECHFPTVNVKVTYKLNHKTKSTFKIKIKYIIERRFRSVQTVRTGYLTIPLLSTSGKWFTVEESFQINLQTSHEYIVLESAHVTYDEDRSADSFFRSYIVEDSAITSVIDNEEYEKLINSEIYNDDEDEDWILVPSDVSISSSESQSNDSKTQYLGRKLFGNKSTPKTRTLEGTAPLLRIGEFAIISANNYPSSNFLAVTSVKSIESSRLEGDSLVLLNWQVGEGHQKGVCYYIIYVNGAVVGLSVAPKFIYQDTELASENSASARSNYKKSGLGSSSDRKSKVRVDSVDKLGNVFTGSEVWV
B2: Endo-Cp: endo-β-N-acetylglucosaminidase from Candida parapolymorpha DL-1 ATCC26012, amino acid sequence SEQ ID NO. 5, 745 amino acids (protein, listed as Candida parapolymorpha)
chain: MPRNTAKHSSLPQTNLPLSSLESSFFDSLDELANWERRIHEKSFELDELNKPTEKLAHYTRARQQSTSEDVKLLVCHDLKGGYQVNEDEDPLGYFPHPDGQHYFLQYPQLVDKFVYFSHHRVSIPPVSWINVCHRNAIKCLGTVIFEGNTYRDFEEADKLLTKQDGEYVFVRCLVALVEYFQFDGYLFNIETRFSNTRIASLLEPFLEQLRAELHVRNPSTELIWYDSYIYPENRVLYKNGVTEANYNFFSCCDSFFTNYWWNVKHLQDNIKNVGVLGSRLKVYAGYDVWGRGTMIGKGGYDSALACQMIKKYRSNVALFAPAWTYEYLARKDFTQNDTRFWIGLFDGESSMATTFKPYSSPLYKINDSNFVFYTNFGSGEGCAFYECGEKVYRDNWVNGSLQMEIPYAIHTRNKNGIQWTLSKEDSFHGGSCVEIKYNEVVDDKGYQVFNNQTINSFSLFSFVQDCSFPTVNVKLTYKLNHKTKSFFKLKIGYYIERRYRTVQKVRSGCLVVPLLSTNDQWFTIEEPFHVSLQNSHEFIVLDSATIFYEETEDPFMRAHVVEDQSTSSVIDNEEYEKLMNSEIYFDDEDEDWILVPSDISMESTDNGGRENHTWKVISNQIRKKHPKSHPSTSPVLKLGELAIINANDYPSDSFFKLMPVNSIDVRRWEGKILLIWKTNQDSVLYHLIFVDDVFQGISLVSKFVFEDQAVDEKSFKTKSGGSTKVRIDTVNRLGILVKGTDM

Test: Enzyme activity measurement with NGA2-Asn-Fmoc by HPLC (specific activity, Km, Vmax)
Assay type: biochemical
Settings: for Specific activity: 1 mM NGA2-Asn-Fmoc as substrate
Procedure: The enzyme activity was measured as follows. A reaction solution (total volume: 10 μl) containing 100 mM of a sodium acetate buffer (pH 5.3) at the final concentration, 0.5 M NaCl, 10 μM of a Fmoc-labeled biantennary complex type sugar chain (NGA2-Asn-Fmoc), […], and heated at 95° C. for 5 minutes, thereby stopping the enzyme reaction. The reaction solution was subjected to HPLC, and the enzymatic activity was calculated from the peak area ratio between the NGA2-Asn-Fmoc as the substrate and its hydrolysate. The column was Asahipak NH2P-50 4E (4.6.250 mm, Shodex), and the solvents were acetonitrile (solvent A) and 200 mM of TEAA (pH 7.0, GLEN RESEARCH: solvent B). Isocratic elution was carried out at a flow rate of 1.0 ml/min, and the solvent B: 43%, and detection was carried out using a fluorescence detector (excitation wavelength 265 nm, and fluorescence wavelength 315 nm). The activity hydrolyzing […] of NGA2-Asn-Fmoc in 1 minute under the above-described reaction conditions was defined as 1 Unit of the enzymatic activity of Endo-Om.
The properties of Endo-Om were studied using a purified enzyme solution. According to the method described in Example 4, the Endo-Om crude enzyme solution prepared from 100 ml culture was substituted with an equilibration buffer (20 mM sodium phosphate buffer (pH 7.4), 0.5 M NaCl, 0.5 mM PMSF, 50 mM imidazole) by dialysis. The Endo-Om crude enzyme solution after dialysis was subjected to a HisTrap HP column (GE Healthcare), washed with the equilibration buffer, and eluted stepwise by an equilibration buffer containing 50 mM, 100 mM, and 200 mM of imidazole, thereby eluting the protein. The fraction containing Endo-Om eluted from the column was subjected to ultrafiltration concentration using Amicon Ultra (50,000 NMWL, Millipore), further dialyzed with 20 mM of sodium phosphate buffer (pH 7.4) and 0.5 M of NaCl, and glycerol was added to make the final concentration 10%, thereby making an Endo-Om purified enzyme solution. According to the method described in Example 4, the activity of the Endo-Om purified enzyme solution when the substrate concentration was 1 mM was measured, and the specific activity was calculated. In addition, activity measurement was carried out using NGA2-Asn-Fmoc at different concentrations as the substrates, and Km and Vmax were calculated. For comparison, the specific activity, Km, and Vmax of the commercially available Endo-M were calculated by the same method. The optimal pH of Endo-M is 6.0 (Non Patent Literature 6), so that the pH of the sodium acetate buffer was made 6.0 when measuring the activity of Endo-M.
The enzyme activity was measured as follows. A reaction solution (total volume: 10 μl) containing 100 mM of a sodium acetate buffer (pH 5.3) at the final concentration, 0.5 M NaCl, 10 μM of a Fmoc-labeled biantennary complex type sugar chain (NGA2-Asn-Fmoc), and Endo-Cp was incubated at 30° C. for 3 hours, and heated at 95° C. for 5 minutes, thereby stopping the enzyme reaction. The reaction solution was subjected to HPLC, and the enzymatic activity was calculated from the peak area ratio between the NGA2-Asn-Fmoc as the substrate and its hydrolysate. […] Isocratic elution was carried out at a flow rate of 1.0 ml/min, and the solvent B: 43%, and detection was carried out using a fluorescence detector (excitation wavelength 265 nm, and fluorescence wavelength 315 nm). […]
The enzyme activity was measured as follows. […]

| Molecule | Specific activity (purified Endo-Om) [µmol/min/mg] | Specific activity (purified Endo-Om (pH 5.3), commercially available Endo-M (pH 6.0)) [µmol/min/mg] | Km relative to the Km of Endo-M (NGA2-Asn-Fmoc) [times] | Vmax relative to the Vmax of Endo-M (NGA2-Asn-Fmoc) [times] | Specific activity of partially purified enzyme solution (10 μM NGA2-Asn-Fmoc as substrate, pH 5.3, 30° C.) [μUnit/mg] |
| --- | --- | --- | --- | --- | --- |
| B1 | 0.8 | 0.80 | 31 | 55 |  |
| B2 |  |  |  |  | 120 |
